According to patent US20170035877A1 (published 2017):

Molecular target: soluble four-domain CD4 (UniProt P01730 26-390)
Test: ITC

B1: 16055 SOSIP.663 trimer, negatively selected (flow-through of the GE136 column) (other)
chain 1: not shown
chain 2: AVGLGAVIFGFLGAAGSTMGAASITLTVQARQLLSGIVQQQSNLLKAPEAQQHLLQLTVWGIKQLQTRVLAIERYLKDQQLLGIWGCSGKLICCTAVPWNSSWSNKSHDEIWGNMTWMQWDREISNYTNTIYRLLEDSQNQQEQNEKDLLAL
  Kd: 6 nM
